Test results reported in US20140286957A1 (Teva, published 2014).
Like-named read-outs stand apart in the source and are kept apart here. Blank lines part the entries; values can stand above or below the binder they belong to.

Tests used:
mCD1dhu [1] = biological target: T1, mCD1dhu (mouse with human segments); assay: direct ELISA, plate coated with 1 µg/mL CD1d construct, HRP anti-human IgG (H+L) detection
T1 chain: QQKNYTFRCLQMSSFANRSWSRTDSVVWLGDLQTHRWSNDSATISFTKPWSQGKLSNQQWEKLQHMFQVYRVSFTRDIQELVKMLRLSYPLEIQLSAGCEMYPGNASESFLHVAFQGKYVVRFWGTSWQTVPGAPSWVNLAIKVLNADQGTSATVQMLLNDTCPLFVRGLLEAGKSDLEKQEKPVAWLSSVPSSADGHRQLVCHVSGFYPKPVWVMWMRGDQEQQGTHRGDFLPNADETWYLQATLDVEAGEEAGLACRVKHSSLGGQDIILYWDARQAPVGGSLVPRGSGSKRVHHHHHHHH

Human CD1d/β2M [2] = biological target: T2, Human CD1d/β2M (human, UniProt P15813 20-301; P61769 21-119); assay: as above
T2 construct: also called hCD1d; recombinant human CD1d

Mouse CD1d [3] = biological target: T3, Mouse CD1d (mouse, UniProt P11609 22-305); assay: as above
T3 construct: Murine CD1d extracellular domain construct, HEK-293E; also called mCD1d; murine CD1d
T3 sequence: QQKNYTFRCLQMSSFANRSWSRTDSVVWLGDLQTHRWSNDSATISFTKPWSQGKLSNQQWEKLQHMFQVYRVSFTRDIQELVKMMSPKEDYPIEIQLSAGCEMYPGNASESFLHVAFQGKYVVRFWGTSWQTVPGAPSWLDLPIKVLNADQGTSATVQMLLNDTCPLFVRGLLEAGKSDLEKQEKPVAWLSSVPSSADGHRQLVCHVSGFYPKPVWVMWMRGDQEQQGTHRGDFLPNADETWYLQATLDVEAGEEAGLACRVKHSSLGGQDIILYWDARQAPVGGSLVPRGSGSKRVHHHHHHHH

Human CD1d/β2M [4] = biological target: T2, Human CD1d/β2M; assay: SPR
Human CD1d on cells [5] = biological target: T4, Human CD1d on cells (human, UniProt P15813 20-335); assay: cell-based or functional assay
T4 sequence (looked up): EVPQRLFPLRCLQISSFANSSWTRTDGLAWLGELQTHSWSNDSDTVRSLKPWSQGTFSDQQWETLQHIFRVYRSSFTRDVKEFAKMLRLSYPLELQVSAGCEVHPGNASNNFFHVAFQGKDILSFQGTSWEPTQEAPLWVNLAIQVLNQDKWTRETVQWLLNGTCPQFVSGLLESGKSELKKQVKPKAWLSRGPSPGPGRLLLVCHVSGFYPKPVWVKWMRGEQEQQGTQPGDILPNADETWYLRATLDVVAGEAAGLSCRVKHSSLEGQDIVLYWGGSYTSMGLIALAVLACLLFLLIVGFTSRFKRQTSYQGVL

Human CD1d on cells [6] = biological target: T4, Human CD1d on cells; assay: cell-based or functional assay; remark: listed apart in the source
Human CD1d on cells [7] = biological target: T4, Human CD1d on cells; assay: cell-based or functional assay; remark: listed apart in the source
Human CD1d on cells [8] = biological target: T4, Human CD1d on cells; assay: cell-based or functional assay; remark: listed apart in the source
Human CD1d on cells [9] = biological target: T4, Human CD1d on cells; assay: cell-based or functional assay; remark: listed apart in the source
Human CD1d on cells [10] = biological target: T4, Human CD1d on cells; assay: cell-based or functional assay; remark: listed apart in the source
Human CD1d on cells [11] = biological target: T4, Human CD1d on cells; assay: cell-based or functional assay; remark: listed apart in the source
Human CD1d/β2M [12] = biological target: T2, Human CD1d/β2M; assay: SPR, IgG captured, CD1d/β2M analyte
Procedure: Purified antibodies were also subjected to full kinetic characterization using a BIACORE™ T100 biosensor (GE Healthcare). Approximately 10,000 RU of anti-human IgG (Invitrogen cat# H10500) was immobilized on a CM5 Series S Sensor chip, using standard amine coupling chemistry in flow cell (FC) 1 and FC2 (or alternatively FC3 and FC4) of the BIACORE™ T100 Biosensor. The running buffer used was HBS-EP-1-(GE Healthcare) and interactions measured at 25° C. Peak purified IgGs were diluted to 10 nM in running buffer, and captured on FC2 (or alternatively FC4) at a flow rate of 10 μL/min in order to capture 50-80 RU of IgG. […] The contact time for association was 120 sec and dissociation measured for 20 mins for the highest concentration and 240 sec for all other concentrations in the series. The sensorgram data from FC2 was subtracted from FC1 and a buffer only control.

Human CD1d on cells [13] = biological target: T4, Human CD1d on cells; assay: cell-based or functional assay; remark: listed apart in the source
Human CD1d on cells [14] = biological target: T4, Human CD1d on cells; assay: cell-based or functional assay; remark: listed apart in the source
[15] = biological target: Cynomolgus macaque CD1d on cells (cynomolgus macaque); assay: flow cytometry, biotinylated antibody and streptavidin-PE on cynomolgus PBMC, gated live cells
mCD1dhu [16] = biological target: T1, mCD1dhu; assay: direct ELISA, plate coated with 1 µg/mL CD1d construct, HRP anti-human IgG (H+L) detection
hCD1dmu = biological target: T5, hCD1dmu (human with mouse segments); assay: as above
T5 chain: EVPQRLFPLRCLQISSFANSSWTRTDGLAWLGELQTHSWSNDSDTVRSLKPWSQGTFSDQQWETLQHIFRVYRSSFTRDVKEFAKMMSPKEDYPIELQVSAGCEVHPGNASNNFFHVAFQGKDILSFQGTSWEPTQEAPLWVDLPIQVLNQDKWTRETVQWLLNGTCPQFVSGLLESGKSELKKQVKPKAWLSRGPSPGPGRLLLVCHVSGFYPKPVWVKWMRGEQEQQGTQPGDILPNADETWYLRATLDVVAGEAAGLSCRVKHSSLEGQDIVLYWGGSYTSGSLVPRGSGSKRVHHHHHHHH

Human CD1d/β2M [17] = biological target: T2, Human CD1d/β2M; assay: as above; remark: listed apart in the source
Mouse CD1d [18] = biological target: T3, Mouse CD1d; assay: as above; remark: listed apart in the source
[19] = biological target: T6, CD1d tetramer loaded with α-GalCer (ProImmune) (UniProt P15813 20-301, limits assumed); assay: flow cytometry, inhibition of CD1d tetramer (10 nM) binding to NKTCR on J.RT3-T3.5 cells
T6 construct: Bought reagent; also called fluorochrome-conjugated CD1d tetramer
T6 sequence (looked up): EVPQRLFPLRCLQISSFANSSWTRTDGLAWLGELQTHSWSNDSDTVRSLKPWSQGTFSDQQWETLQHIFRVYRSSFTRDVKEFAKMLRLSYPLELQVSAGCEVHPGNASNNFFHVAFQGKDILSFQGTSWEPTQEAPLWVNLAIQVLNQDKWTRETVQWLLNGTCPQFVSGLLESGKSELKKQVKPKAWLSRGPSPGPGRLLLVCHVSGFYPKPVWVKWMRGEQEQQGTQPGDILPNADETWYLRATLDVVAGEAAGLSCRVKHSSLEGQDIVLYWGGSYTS
Procedure: To perform the assay, antibodies were prepared at decreasing concentrations from 10 μg/mL in 0.1% bovine serum albumin (BSA) in cold 1×PBS at pH 7.4. […] Wash steps were done in 0.1% BSA in 1×PBS. Data were acquired by flow cytometry and analyzed using flow cytometry analysis software (FlowJo® Treestar, Inc.).

Human CD1d/β2M [20] = biological target: T2, Human CD1d/β2M; assay: SPR, Protein A purified IgG
Human CD1d on cells [21] = biological target: T4, Human CD1d on cells; assay: cell-based or functional assay; remark: listed apart in the source
Human CD1d on cells [22] = biological target: T4, Human CD1d on cells; assay: cell-based or functional assay; remark: listed apart in the source

EC50 (read off the curve) (mCD1dhu [1]): ~100 ng/mL | EC50 (read off the curve) (Human CD1d/β2M [2]): ~8 ng/mL | binding result (Mouse CD1d [3]): no binding | Kd (Human CD1d/β2M [4]): 0.189 nM | fold improvement against 401.11 (IFN-γ, moDC) (Human CD1d on cells [5]): ~4.8 fold | fold potency against antibody 42 (C24:1 βGluCer) (Human CD1d on cells [5]): ≤ 216 fold | fold potency against antibody 51.1 (C24:1 βGluCer) (Human CD1d on cells [5]): ≤ 175 fold | NKT IFN-γ EC50 (moDC) (Human CD1d on cells [6]): 2.8 ng/mL | NKT IL-4 EC50 (moDC) (Human CD1d on cells [6]): 0.432 ng/mL | NKT IL-5 EC50 (moDC) (Human CD1d on cells [6]): 0.704 ng/mL | NKT IL-13 EC50 (moDC) (Human CD1d on cells [6]): 0.598 ng/mL | NKT IFN-γ EC50 (moDC) (Human CD1d on cells [7]): 8.16 ng/mL | NKT IL-4 EC50 (moDC) (Human CD1d on cells [7]): 2.19 ng/mL | NKT IL-5 EC50 (moDC) (Human CD1d on cells [7]): 6.13 ng/mL | NKT IL-13 EC50 (moDC) (Human CD1d on cells [7]): 9.82 ng/mL | NKT TNF EC50 (moDC) (Human CD1d on cells [7]): 4.3 ng/mL | IFN-γ EC50 (C24:1 βGluCer, moDC) (Human CD1d on cells [8]): 0.64 ng/mL | IL-4 EC50 (C24:1 βGluCer, moDC) (Human CD1d on cells [8]): 0.682 ng/mL | IL-5 EC50 (C24:1 βGluCer, moDC) (Human CD1d on cells [8]): 0.868 ng/mL | IL-13 EC50 (C24:1 βGluCer, moDC) (Human CD1d on cells [8]): 1.44 ng/mL | TNF-α EC50 (C24:1 βGluCer, moDC) (Human CD1d on cells [8]): 0.842 ng/mL | NKT IL-4 EC50 (moDC) (Human CD1d on cells [9]): 0.58 ng/mL | NKT IL-13 EC50 (moDC) (Human CD1d on cells [9]): 3.84 ng/mL | NKT IFN-γ EC50 (THP-1) (Human CD1d on cells [10]): 2.6 ng/mL | NKT IFN-γ EC50 (moDC) (Human CD1d on cells [10]): 3 ng/mL | NKT IL-4 EC50 (THP-1) (Human CD1d on cells [10]): 2.2 ng/mL | NKT IL-4 EC50 (moDC) (Human CD1d on cells [10]): 1.16 ng/mL | NKT IL-13 EC50 (THP-1) (Human CD1d on cells [10]): 4.35 ng/mL | NKT IFN-γ EC50 (THP-1) (Human CD1d on cells [11]): 6.4 ng/mL | NKT IL-4 EC50 (THP-1) (Human CD1d on cells [11]): 2.66 ng/mL | NKT IL-5 EC50 (THP-1) (Human CD1d on cells [11]): 4.5 ng/mL | NKT IL-13 EC50 (THP-1) (Human CD1d on cells [11]): 7.78 ng/mL | NKT TNF EC50 (THP-1) (Human CD1d on cells [11]): 4.14 ng/mL
B1: 401.11.158 (antibody, V domains shown)
VH: QVQLVGSGGGLVKPGRSLRLSCAASGFTFDDYAMHWVRQAPGKGLEWVATIIWNSAIIGYADSVKGRFIVSRDNAKNSLYLQMNSLRAEDTALYYCAKDMCSSGGCPDGYFDSWGQGTLVTVSS
VL: DIQMTQSPSSVSASVGDRVTITCRASQHISSWLAWYQQKPGKAPKLLIYAASSLQSGVPSRFSGSGSGTDFTLTISSLQPEDFATYYCQQANRFPLTFGGGTKLEIKR
notes: IgG4 (S228P); biotinylated or Pacific Blue labelled in some assays

Kd (Human CD1d/β2M [12]): 0.304 nM | koff (Human CD1d/β2M [12]): 0.000161 s⁻¹ | kon (Human CD1d/β2M [12]): 530000 M⁻¹ s⁻¹ | IFN-γ EC50 (primary CD14+ cells) (Human CD1d on cells [13]): 28.6 ng/mL | IL-4 EC50 (primary CD14+ cells) (Human CD1d on cells [13]): 4 ng/mL | IL-5 EC50 (primary CD14+ cells) (Human CD1d on cells [13]): 6.9 ng/mL | IL-13 EC50 (primary CD14+ cells) (Human CD1d on cells [13]): 39.9 ng/mL | fold potency against 51.1, IL-2 release (Human CD1d on cells [5]): ~17 fold | fold potency against antibody 42 (C24:1 βGluCer) (Human CD1d on cells [5]): ≤ 139 fold | fold potency against antibody 42 (THP-1 assay) (Human CD1d on cells [5]): ≤ 180 fold | fold potency against antibody 42 (moDC assay) (Human CD1d on cells [5]): ≤ 50 fold | fold potency against antibody 42, IL-2 release (Human CD1d on cells [5]): ~25 fold | fold potency against antibody 51.1 (C24:1 βGluCer) (Human CD1d on cells [5]): ≤ 112 fold | IL-2 release EC50 (U-937 + NKTCR cell line) (Human CD1d on cells [14]): 4.5 ng/mL | percent CD1d-positive cells, Donor 1 [15]: 81.3% | percent CD1d-positive cells, Donor 2 [15]: 64% | EC50 (read off the curve) (mCD1dhu [16]): ~5 ng/mL | binding result (hCD1dmu): no binding (tested: 10 µg/mL) | EC50 (read off the curve) (Human CD1d/β2M [17]): ~6 ng/mL | binding result (Mouse CD1d [18]): no binding (tested: 10 µg/mL) | IFN-γ EC50 (C24:1 βGluCer, moDC) (Human CD1d on cells [8]): 0.995 ng/mL | IL-4 EC50 (C24:1 βGluCer, moDC) (Human CD1d on cells [8]): 0.636 ng/mL | IL-5 EC50 (C24:1 βGluCer, moDC) (Human CD1d on cells [8]): 0.929 ng/mL | IL-13 EC50 (C24:1 βGluCer, moDC) (Human CD1d on cells [8]): 2.94 ng/mL | TNF-α EC50 (C24:1 βGluCer, moDC) (Human CD1d on cells [8]): 1.51 ng/mL | EC50 [19]: 165 ng/mL | Kd (Human CD1d/β2M [20]): 0.145 nM | NKT IFN-γ EC50 (moDC) (Human CD1d on cells [21]): 0.105 ng/mL | NKT IL-13 EC50 (moDC) (Human CD1d on cells [21]): 0.154 ng/mL | IFN-γ EC50 (THP-1) (Human CD1d on cells [22]): 2.4 ng/mL | IL-4 EC50 (THP-1) (Human CD1d on cells [22]): 1.7 ng/mL | IL-5 EC50 (THP-1) (Human CD1d on cells [22]): 1.2 ng/mL | IL-13 EC50 (THP-1) (Human CD1d on cells [22]): 1.5 ng/mL
B2: 402.8 (antibody, V domains shown)
VH: QVQLQESGPGLVRPSETLSLTCAVYGGSFSGYYWSWIRQPPGKGLEWIGEINHSGSTNYNPSLKSRVTISVDTSKNQFSLKLSSVTAADTAVYYCARGEIYDFWNSYMDVWGKGTTVTVSS
VL: QTVVTQEPSLTVSPGGTVTLTCASSSGAVSSGNFPNWFQQKPGQAPRALIFSASNKHSWTPARFSGSLLGGKAVLTLSGVQPEDEAEYYCLLYFGDTQLGVFGGGTKVTVLG
notes: Human IgG4 (S228P); biotinylated or Pacific Blue labelled in some assays
